Data reported in US20250066819.

Columns and labels:
Test in all cases: cell_activity
[1] = system: Type I-F3a CAST (TniQ-Cascade + TnsABC) (Vibrio cholerae HE-45)
[2] = system: Type I-F3a CAST with Cas6 R117A Cas6 R117A (Vibrio cholerae HE-45); conditions: below detection
[3] = system: Type I-F3a CAST with Cas6 R121A Cas6 R121A (Vibrio cholerae HE-45); conditions: below detection
[4] = system: Type I-F3a CAST with Cas6 R125A Cas6 R125A (Vibrio cholerae HE-45); conditions: below detection

Substance: lacZ crRNA, canonical type I-E repeat ; lacZ target
- relative transposition efficiency (fold of native) ([1]; printed as ~10-3-fold less efficient than native crRNA): 0.001

Substance: lacZ crRNA, native I-F3a CAST repeat ; lacZ target
- activity [2]: < 1e-07 cfu
- activity [3]: < 1e-07 cfu
- activity ([1]; transposition efficiency of viable recipients (+/- 0.2), E. coli, conjugation assay, PAM not stated): 1.4%
- activity [4]: < 1e-07 cfu
